Assay results taken from publication PMC6100724 (2018).

Biological target: Scribble PDZ1 (His-tagged, aa 719-829) (human, UniProt Q14160 719-829)
Test: ITC

Sequence of Scribble PDZ1 (His-tagged, aa 719-829) (Q14160 719-829): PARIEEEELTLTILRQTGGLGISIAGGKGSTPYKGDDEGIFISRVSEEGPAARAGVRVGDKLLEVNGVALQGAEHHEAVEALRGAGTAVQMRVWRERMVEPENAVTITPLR

- Kd: 1.6 µM
Binder: ARVSKETPL [ARVSKETPL (MAPK12 peptide, unphosphorylated)]
